We go through 2 substances from patent US20230399377A1.

Like-named read-outs stand apart in the source and are kept apart here.

The target in test [1] is recombinant human VEGF-A165 (human) (UniProt P15692).
Test [2] has the same target. The test can be described thus: SPR Biacore; Fc fusion captured on anti-human IgG (Fc) antibody chip, VEGF-A165 as analyte, 1:1 model.
Test [3] has the same target. This is another data set of the same source.
Test [4] has as its target T1, human PlGF (human) (UniProt P49763).
T1 sequence (looked up): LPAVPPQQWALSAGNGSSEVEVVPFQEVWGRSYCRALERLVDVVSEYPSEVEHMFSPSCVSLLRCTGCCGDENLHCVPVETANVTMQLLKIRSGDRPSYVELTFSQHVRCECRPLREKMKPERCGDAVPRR
The experiment in a line: SPR Biacore; Fc fusion captured on anti-human IgG (Fc) antibody chip, PlGF as analyte, 1:1 model.

In test [5] the target is T2, human VEGF-B 167/189 (human) (UniProt P49765).
T2 sequence (looked up): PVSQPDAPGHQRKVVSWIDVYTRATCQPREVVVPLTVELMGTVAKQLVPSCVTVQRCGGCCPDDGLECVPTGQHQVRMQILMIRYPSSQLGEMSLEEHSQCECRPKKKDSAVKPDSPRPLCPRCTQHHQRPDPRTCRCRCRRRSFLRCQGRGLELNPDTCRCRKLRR
The experiment in a line: SPR Biacore; Fc fusion captured on anti-human IgG (Fc) antibody chip, VEGF-B167/189 as analyte, 1:1 model.

The target in test [6] is recombinant human VEGF-A165 (human) (UniProt P15692). This is another data set of the same source.
Test [7] deals with T1, human PlGF (human). The test can be described thus: SPR Biacore; Fc fusion captured on anti-human IgG (Fc) antibody chip, PlGF as analyte, 1:1 model. The source holds these as a separate data set.
In test [8] the target is recombinant human VEGF-C (human) (UniProt P49767).
Chain of recombinant human VEGF-C (human) (P49767 103-227 limits assumed): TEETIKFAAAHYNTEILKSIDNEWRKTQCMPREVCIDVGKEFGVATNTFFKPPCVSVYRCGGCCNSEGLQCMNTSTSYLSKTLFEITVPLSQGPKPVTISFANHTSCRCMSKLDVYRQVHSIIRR
For test [9], the target named is recombinant human VEGF-D (human) (UniProt O43915).
Chain of recombinant human VEGF-D (human) (O43915 93-201 limits assumed): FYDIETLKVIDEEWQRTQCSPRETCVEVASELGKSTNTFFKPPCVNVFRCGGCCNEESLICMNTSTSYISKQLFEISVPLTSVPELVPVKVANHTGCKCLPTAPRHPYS
For test [10], the target named is recombinant human VEGF-C (human) (UniProt P49767). The source holds these as a separate data set.
Test [11] shares this target. This is another data set of the same source.

Chain of aflibercept (Fc fusion) (chain): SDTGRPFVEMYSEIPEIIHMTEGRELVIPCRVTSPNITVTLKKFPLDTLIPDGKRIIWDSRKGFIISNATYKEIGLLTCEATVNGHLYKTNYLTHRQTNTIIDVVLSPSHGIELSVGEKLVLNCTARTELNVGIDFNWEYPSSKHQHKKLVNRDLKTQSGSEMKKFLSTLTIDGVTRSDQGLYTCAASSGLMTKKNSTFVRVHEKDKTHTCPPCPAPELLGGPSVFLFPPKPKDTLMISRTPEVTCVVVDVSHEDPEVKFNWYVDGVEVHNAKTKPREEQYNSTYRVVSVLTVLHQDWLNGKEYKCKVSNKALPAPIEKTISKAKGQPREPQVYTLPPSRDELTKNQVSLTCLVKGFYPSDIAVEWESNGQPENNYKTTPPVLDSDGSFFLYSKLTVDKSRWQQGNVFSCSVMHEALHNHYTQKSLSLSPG
Chain of recombinant human VEGF-A165 (human) (P15692 other isoform, or with tags, fused parts or gaps limits assumed): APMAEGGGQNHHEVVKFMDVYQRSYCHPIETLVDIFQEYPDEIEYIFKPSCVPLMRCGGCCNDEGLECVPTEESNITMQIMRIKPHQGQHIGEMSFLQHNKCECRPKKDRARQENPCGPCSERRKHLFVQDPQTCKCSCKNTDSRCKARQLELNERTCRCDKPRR

As to aflibercept (Fc fusion), the IC50, inhibition of VEGF-A165 (60 ng/mL) mediated VEGFR-2 signaling, VEGFR-2-NFAT-RE luciferase reporter cells in [1] was determined as 0.39 nM; in [6] it was 0.41 nM. Also, the equilibrium dissociation constant (Kd) came out at 0.0336 nM in test [2], 0.48 nM in the test with human PlGF (human) [4], 0.0173 nM in test [5] and 0.484 nM with human PlGF (human) [7]. In addition, the IC50, inhibition of VEGF-A165 (100 ng/mL on the sheet) mediated HLEC proliferation, alamarBlue reduction in test [3] is 1.18 nM.

On to “recombinant human VEGFR-3 containing 7 extracellular domains (from UniProt P35916 25-775) (receptor)”, for which, in [8], the IC50, inhibition of VEGF-C (40 ng/mL on the sheet) mediated HLEC proliferation, alamarBlue reduction was 1.47 nM. The IC50, MIXED STIMULUS VEGF-C (25 ng/mL) + VEGF-D (150 ng/mL): inhibition of HLEC proliferation, alamarBlue reduction; one IC50 for the mixture in [9] and in [10] was 1.26 nM throughout. Moreover, in test [11], the IC50, inhibition of VEGF-C (25 ng/mL) mediated VEGFR-2 signaling, VEGFR-2-NFAT-RE luciferase reporter cells came out at 0.0093 nM.
